Assay results reported in the nanobody polyreactivity screen of Harvey et al. (2022).

Test: yeast display, Sf9 membrane polyspecificity reagent, FACS + sequencing; frameworks hold sequencing errors
Procedure, shortened: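 In a synthetic yeast display library (Saccharomyces cerevisiae BJ5465), nanobody expression was induced with galactose for 36–48 hours. FACS gates were set low and high (top ~1%) using anti-HA fluorescence for expression and streptavidin fluorescence for binding of the Sf9 membrane reagent. Each polyreactivity label is drawn from the gate of origin.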

Sequence	polyreactivity (PSR sort gate)
QVQLVESGGGLVQAGGSLRLSCAASGRTFSYYAMGWYRQAPGKERELVAAISSGGSTYYADSVKGRFTISRDNAKNTVYLQMNRLKPEDTAVYYCAKEYKQALGHVSFDYWGQGTQVTVSS	low polyreactivity
QVQLVESGGGLVQAGGSLRLSCAASGFIFYRYAMGWYRQAPGKERELVAAISSSGGSTYYADSVKGRFTISRDNAKNTVYLQMNSLKPEDTAVYYCNKRPQQYSPGYDYWGQGTQVTVSS	high polyreactivity
QVQLVESGGGLVQAGGSLRLSCAASGGTFYGYAMGWYRQAPGKERELVAASNYRGGRTYYADSVKGRFTISRDNAKNTGYLQMNSLKPEDTAVYYCAATSYRLDGYDYWGQGTQVTVSS	high polyreactivity
QVQLVESGGGLVQAGGSLRLSCAASGFTFYLNAMGWYRQAPGKERELVAAITRRGTSTYYADSVKGRFTISRDNAKNTVYLQMNSLKPEDTAVYYCAARPLDYWGQGTQVTVSS	high polyreactivity
QVQLVESGGGLVQAGGSLRLSCAASGITFPWYAMGWYIQAPGKERELVAAISFSGGSTYYADSVKWRFTISRDNAKNTVYLQMNCLKPVDTAVYYCAAVDGYSYIYAAGDYWGQGTQVTVSS	low polyreactivity
QVQLVESGGGLVQAGGSLRLSCAASGFTLWLNAMGWYRQAPGKERELLAAITTSDDGTYYADSVKGRFTISRDNAKNTVYLQMNSLKPEETAVYYCAADYYSVQYDYWGQGTQVTVSS	low polyreactivity
QVQLVESGGGLVQAGGSLRLSCAASGSIFRWNAMGWYRQAPGKERELVAAITYSGGTTYYADSVKGRFTISRDNAKNTVYLQMNSLKPEDTAVYYCAATYYDYYRLYHLGYWGQGTQVTVSS	high polyreactivity
QVQLVDSGGGLVQAGGRLRLSSAPTGSTFYVYLMGGYRQAHGKERELVAVIDWLGGSTYYADSVKGRFTISRDNAKNTVYLQLNSLKPEDTAVYYCYKDAQFYYNLPYYKERDWGQGTQVTVSS	low polyreactivity
QVQLVESGGGLVQAGGSLRLSCAASGRIFGYNDMGWYRQAPGKERELVAAINRTGGSTYYADSVKGRFTISRDNGKNTVYLQMNSLKPEDTAVYYCNAVARTKWVQTHTDFITDYDYWGQGTQVTVSS	low polyreactivity
QVQLVESGGGLVQAGGSLRLICAASGLTFKSNTMGWYRQAPGKERELVAAISRSGGRTYYADSVKGRFTLSRDNAKNTVYLQMNSLKPEDTAVYYCAALYHTYLTWREDYWGQGTQVTVSS	high polyreactivity
QVQLVESGGGLVQAGGSLRLTCAASGRIFYGYTMGWYRKAPGKERELVAAITRRGGRTYYADSVKGRFTISRDNAKNTVYLQMNCLKPEDTAVYYCAATRSGEYDYWGQGTQVTVSS	high polyreactivity
QVQLVESGGGLVQAGGSLRLSCAASGNTFGYNAMGWYRQAPGKERELVASITWSGGSTYYADSVKGRFTISRDNAKNTVYLQMNSLKPEDTAVYYCNADVRFDYWGQGTQVTVSS	low polyreactivity
QVQLVESGGGLVQAGGSLRLSCAASGRIFYAYAMGWYRQAPGKEREMVAAISKGGGSTYYADSVKGRFTISRDNAKNSVYLQMNSLKPEDTAVYYCNAQQYPYHIKYDYWGQGSQVTVSS	low polyreactivity
QVQLVETGGGLVQAGGSLRLSCAASGRNFNWNTMGWYRQAPRKEREFDAAISGSGGSTYYADSVKGRFTISRDNAKNTVYLQMISLKPEDTAVYYCAKRLYYSYYDEMDYWGQGTQVTVSS	high polyreactivity
QVQLVESGGGLVQAGGSLRLSCADSGSIFVYNAMGWYRQAPGKERELVAAITTGGSTNYADSVKGRFTISRDNAKNTVYLQMISLKPEDTAVYYCAVEGYPGRYRDPGDLYYYWGQGTQVTLSS	low polyreactivity
QVQLVESGGGLVQAAGSLRLSSAASGRTFVGYSMGWYRQAPGKERELVAAIHWSVGITYYADSVKGRFTISRDNAKNTVYLQMNSLKPEDTAVYYCAADGYDEPDLLVYEPWREDEYWGQGTQVTVSA	low polyreactivity
QVQLVESGGGLVQAGGSLRLSCAASGSIFYRYAMGWYRQAPGKERELVATITRRGGTTYYADSVKGRFTISRDNAKNTVYLKMNSLKPEDTAVYYCARPYLRASYGAIDYDYWGQGTQVTVSS	high polyreactivity
QVQLVESGGGLVQAGGSLRLSCAASGSIFYPYAMGWYRQAPGKERELVAAISSGGRTYYADSVKGRFTISRDNAKNTVYLQMNSLKPEDTAVFYCAARPKAYGRPPGYYWGQGTQVTVSS	high polyreactivity
QVQLVESGGGLVQAGGSLRLSCAASGSTLGYNAMGWYRQATGKERELVAGISRNGGSTFYADSVKGRFTISRDYAKYTLYLQMNSLKPEDTAVYYCARYYTHSGGFRVRIYYYWGQATQVTVSS	low polyreactivity
QVQLVESGVGLVQAGGSLRLSCAHSGRIFFKNTMGWYRQAPGKERELVAAITSSGSSTYYADSVKGRFTISRDNAMNTVYLQMNSLKPEDTAVYYCNADYGFSFYWYDFWGHGTQVTVSS	low polyreactivity
QVQLVESGGGLVQAGGSLRLSCAASGSIFQPYAMGWYRQAPGKERELVAAISSSGGSTTYADSVKGRFTISRDNAKNTVYLQMNSLKPEDTAVYYCAADVEYKVFPGDYWGQGTQVTVSS	low polyreactivity
QVQLVESGGGLVQAGGSLRLSCAASGNIFAWYAMGGYRQAPGKERELVADISSRGGSTSYADSVKGRFTISRDNAKKTVYLQMNSLKPEDTAVYYCAASYYYPFEYYYWGQGTQVTVSS	low polyreactivity

Sequence	polyreactivity (PSR sort gate)
QVQLVESGGGLVQAGGSLRLSCAASGRTFIWNAMGWYRQAPGKERELVADISIRGGSTNYADSVKGRFTISRDNAKNTVYFQMNSLKPEDTAVYYCAAEYYDSGNDYWGQGTQVTVSS	low polyreactivity
QVQLVESGGGLVQAGGSLRLSSDASGRIFRYYSMGWYRQAPGKERELVAAITRGGYTNYADSVKGRFTISRDNAKITVYFQMNSLKQEDTAVYYCATRQSWYPRWMDYWGQGTQVTVSS	high polyreactivity
QVQLVESGGGLVQAGRTLRLRCAASVSTVPYAMGWYSPAPGKERELVAAISKSAGRSYYADYVKGRFTISRENAKNTVYLQMNSLKPEDTAVYYCAARQSYYGHDYWGQGTQVTVSS	high polyreactivity
QVQLVESGGGLVQAGGSLRLSCAASGRIFTSNAMGWYRQAPGKERELVAAISKSGGRTYYADSVKGRFTISRDNAKNTVYLQMNSLKPEDTAVYYCAKDNYWGQGTQVTVSS	high polyreactivity
QVQLVESGGGLVQAGGSLRLSCAASGSTFSRDAMRWYRQPPGKERELVAAISSVGDTYYADSVKGRFTISRDNAKNTVYLQMNSLKPEDTAVYYCGATFVVKGTRFGYWGQGTQVTVSS	high polyreactivity
QVQLVESGGGLVQAGGSLRLSCAASGFTFDIYAMGWYRQAPGKEWELVAAITSGGITNYADSVKGRFTISRDNAKNTVYLQMNSLKPEDTAVYYCAADEYLGFYVSHTDWTKYDYWGQGTQVTVSS	low polyreactivity
QVQLVESSGGLVQAGVSLRLSFAASGRIILNYPIGLYRKAPGKERELVAAITSDGSRSYADSVKGRFTISRDNAKNSVYLQMKSLKPEDTAVYYCANDFFEHSRVSHTYSSSKYDYGGQGTQVTVSS	low polyreactivity
QVQLVESGGGLVQAGGSLRLSCAASGRTFDRYAMGWYRQAPGKERELVAAITWSGGRTYYADSVKGRFTISRDNAKNTVYLQMNSLKPEDTAVYYCAADDPRDHWYTAMDYWGQGTQVTVSS	low polyreactivity
QVQLVESGGGLVQAGGRLRLSCAASGSTFSRYAMGWYRQAPGKERELVAAISWSGGITYYADSVKGRFTISRDNAKNTVYLQMNSLKPEDTAVYYCAARSRSWSGERGYWGQGTQVTVSS	high polyreactivity
QVQLVESGGGLVQAGGSLRLSCPASGRIFKWYAMGWYRPAPGKERELVAAISWSGGRTYYADSVKGRFTISRDNAKNTVYLQMHSVKPEDTAVYYCAAAIRYRNYVYLYDYWGQGTQVTVSS	high polyreactivity
QVQLVESGGGLVQAGGSLRLSCAASGSIFWYYAMGWYRQAPGKERELVAAIRRGGSTTYADSVKGRFTISRDNAKNTVYLQMNSLKPEDTAVYYCAAEPYYWYRGDYWGQGTQVTVSS	high polyreactivity
QVQLVDSGGGLVQAGGSLRLSCAASGINFASYAMGWYRQAPGKEMEIVAAISRSGSSTYYADSVKGRFTISRDNAKYTVYLQMNSLKPEDTAVYYCARARSGGSHREYYWGQGTQVTVSS	high polyreactivity
QVQIVESGGGLVQAGGSLRLSCAASGSTYDHYTLGWYRQAPGKERELVAAINRIADSTYYADSVKGRFTNSRDNQKNTVYVQMTSLNPEDTAVYYCAARQFVYSSRIILYDYWGHGTQVTVSS	high polyreactivity
QVQLVESGGGLVQAGGSLRLSCAASGRIFPYNAMGWYRQAPGKERELVAAIDWRDNTYYADSVKGRFSISRDNAKNTVYLQMNSLKPEDTAVYYCNVDYTDYFLNKYDYWGQGTQVTVSS	low polyreactivity
QVQLVESGGGLVQAGGSLRLSCAASGSTLNRYAMGWYRQAPGKERELVAAISISGGRTYYADSVKGRFTISRDNAKNTVYLQMNSLKPEDTAVYYCAADQYYYRYIRTSKYDYWGQGTQVTVSS	high polyreactivity
QVQLVESGGGLVQAGGSLRLSCAASGFIFDYYGMGWYRQAPGKERELVAAITRGGSTYYADSVKGRFTISRDNAKNTVYLQMNSLKPEDTAFYYCAAKYVSQGYDYWGQGTQVTVSS	high polyreactivity
QVQLVESGGGLVQAGGSLRISCAASGIIFPYYVMGWYRQAPGKERELVAAINSGGRTYYADSVKGRFTISRDNAKNTVYLQMNSLKPEDTAVYYCARDLYYVYSFAPYRYEYWGQGTQVTVSS	low polyreactivity
QVQLVESGGGLVQAGGSLRLSCAASGSTFSYYTMGWYRPAPGKERELVAAITRRGDSTYADSVKGRFTISRDNAKNTGYLQMNSLKPEATAVYYCAADASVGVSGMDYWGQGTQVTVSS	low polyreactivity
QVQLVESGAGLVQAGGSLRLSCAPSGFTFSWYVMGWYRQAPGKERELVAAITSSGGRTYYADSVKGRFTISRDNAKNTVYLQMNSLKPEDTAVYYCAARFKRGLGDSWGQGTQVTVSS	high polyreactivity
QVQLVESGGGLVQAGGSLRLTCAASGTIFKRYAMRLYRQAPGKERELVATISSRGSCTNYADSLKGRFTISRDIAKNTVYLQMNSLKPQDTAVYYCASEVYRGDFWGQGTQVTVSS	high polyreactivity
QVQLVESGGGLVQAGGSLRLSCAASGSTFYIYAMGWSRQAPGKERELVARISGSGGSTYYADSVKGRFTISRDNAKNTVYLQMNSLKPEDTAVYYCAADDIYKYYQYYAFPYYRYDYWGQGTQVTVSS	low polyreactivity
